Literature values as cited in patent publication US9168216B2, “Carrier comprising one or more di and/or mono-(electron transfer agent) phosphate derivatives or complexes thereof” (priority 2005, dated 2015).

Conditions: subcutaneous, 25 μg/kg body weight

For “PTH: human parathyroid hormone (fragment 1-34)”, the “Time of peak PTH level in rat plasma after injection” value is given as 40 to 60 min and the “Time to complete turnover of PTH in plasma” value is given as at most 4 h.
